Measured values taken from PMC6152903 (Cell reports, 2018).

Key:
[1] = target: the molecule itself; assay: SDS-PAGE without reducing reagent
co-IP = target: the molecule itself; assay: co-IP

Row | Protein | stoichiometry N [1] | stoichiometry N (co-IP)
1 | endogenous ZMYND8 (natural protein) MDISTRSKDPGSAERTAQKRKFPSPPHSSNGHSPQDTSTSPIKKKKKPGLLNSNNKEQSELRHGPFYYMKQPLTTDPVDVVPQDGRNDFYCWVCHREGQVLCCELCPRVYHAKCLRLTSEPEGDWFCPECEKITVAECIETQSKAMTMLTIEQLSYLLKFAIQKMKQPGTDAFQKPVPLEQHPDYAEYIFHPMDLCTLEKNAKKKMYGCTEAFLADAKWILHNCIIYNGGNHKLTQIAKVVIKICEHEMNEIEVCPECYLAACQKRDNWFCEPCSNPHPLVWAKLKGFPFWPAKALRDKDGQVDARFFGQHDRAWVPINNCYLMSKEIPFSVKKTKSIFNSAMQEMEVYVENIRRKFGVFNYSPFRTPYTPNSQYQMLLDPTNPSAGTAKIDKQEKVKLNFDMTASPKILMSKPVLSGGTGRRISLSDMPRSPMSTNSSVHTGSDVEQDAEKKATSSHFSASEESMDFLDKSTASPASTKTGQAGSLSGSPKPFSPQLSAPITTKTDKTSTTGSILNLNLDRSKAEMDLKELSESVQQQSTPVPLISPKRQIRSRFQLNLDKTIESCKAQLGINEISEDVYTAVEHSDSEDSEKSDSSDSEYISDDEQKSKNEPEDTEDKEGCQMDKEPSAVKKKPKPTNPVEIKEELKSTSPASEKADPGAVKDKASPEPEKDFSEKAKPSPHPIKDKLKGKDETDSPTVHLGLDSDSESELVIDLGEDHSGREGRKNKKEPKEPSPKQDVVGKTPPSTTVGSHSPPETPVLTRSSAQTSAAGATATTSTSSTVTVTAPAPAATGSPVKKQRPLLPKETAPAVQRVVWNSSSKFQTSSQKWHMQKMQRQQQQQQQQNQQQQPQSSQGTRYQTRQAVKAVQQKEITQSPSTSTITLVTSTQSSPLVTSSGSMSTLVSSVNADLPIATASADVAADIAKYTSKMMDAIKGTMTEIYNDLSKNTTGSTIAEIRRLRIEIEKLQWLHQQELSEMKHNLELTMAEMRQSLEQERDRLIAEVKKQLELEKQQAVDETKKKQWCANCKKEAIFYCCWNTSYCDYPCQQAHWPEHMKSCTQSATAPQQEADAEVNTETLNKSSQGSSSSTQSAPSETASASKEKETSAEKSKESGSTLDLSGSRETPSSILLGSNQGSDHSRSNKSSWSSSDEKRGSTRSDHNTSTSTKSLLPKESRLDTFWD | 2 | –
2 | FLAG-ZMYND8 (Sf9) (natural protein) MHPQSLAEEEIKTEQEVVEGMDISTRSKDPGSAERTAQKRKFPSPPHSSNGHSPQDTSTSPIKKKKKPGLLNSNNKEQSELRHGPFYYMKQPLTTDPVDVVPQDGRNDFYCWVCHREGQVLCCELCPRVYHAKCLRLTSEPEGDWFCPECEKITVAECIETQSKAMTMLTIEQLSYLLKFAIQKMKQPGTDAFQKPVPLEQHPDYAEYIFHPMDLCTLEKNAKKKMYGCTEAFLADAKWILHNCIIYNGGNHKLTQIAKVVIKICEHEMNEIEVCPECYLAACQKRDNWFCEPCSNPHPLVWAKLKGFPFWPAKALRDKDGQVDARFFGQHDRAWVPINNCYLMSKEIPFSVKKTKSIFNSAMQEMEVYVENIRRKFGVFNYSPFRTPYTPNSQYQMLLDPTNPSAGTAKIDKQEKVKLNFDMTASPKILMSKPVLSGGTGRRISLSDMPRSPMSTNSSVHTGSDVEQDAEKKATSSHFSASEESMDFLDKSTASPASTKTGQAGSLSGSPKPFSPQLSAPITTKTDKTSTTGSILNLNLDRSKAEMDLKELSESVQQQSTPVPLISPKRQIRSRFQLNLDKTIESCKAQLGINEISEDVYTAVEHSDSEDSEKSDSSDSEYISDDEQKSKNEPEDTEDKEGCQMDKEPSAVKKKPKPTNPVEIKEELKSTSPASEKADPGAVKDKASPEPEKDFSEKAKPSPHPIKDKLKGKDETDSPTVHLGLDSDSESELVIDLGEDHSGREGRKNKKEPKEPSPKQDVVGKTPPSTTVGSHSPPETPVLTRSSAQTSAAGATATTSTSSTVTVTAPAPAATGSPVKKQRPLLPKETAPAVQRVVWNSSSKFQTSSQKWHMQKMQRQQQQQQQQNQQQQPQSSQGTRYQTRQAVKAVQQKEITQSPSTSTITLVTSTQSSPLVTSSGSMSTLVSSVNADLPIATASADVAADIAKYTSKMMDAIKGTMTEIYNDLSKNTTGSTIAEIRRLRIEIEKLQWLHQQELSEMKHNLELTMAEMRQSLEQERDRLIAEVKKQLELEKQQAVDETKKKQWCANCKKEAIFYCCWNTSYCDYPCQQAHWPEHMKSCTQSATAPQQEADAEVNTETLNKSSQGSSSSTQSAPSETASASKEKETSAEKSKESGSTLDLSGSRETPSSILLGSNQGSDHSRSNKSSWSSSDEKRGSTRSDHNTSTSTKSLLPKESRLDTFWD | – | 2
